The results in this text go back to article PMC10699557 (2023).

Assay [1] has as its target HumRadA22. The assay is described as follows: FP.
Assay [2] deals with HumRadA22. The assay is described as follows: ITC.
Assay [3] concerns the target HumRadA22. The assay is described as follows: ITC. The source holds these as a separate data set. On the technique in general: Isothermal titration calorimetry measures the heat released or taken up as one component is titrated into another.

As a reminder, the Kd is the constant that tells how readily two partners part at equilibrium. High values mean lower affinity, low ones higher affinity.

Numbered stars: 1 amine (or outer) side, 2 acyl side, 3 side chain; on linkers, the order of the positions; unused ones are H or OH. Bridge positions count the residues as written; N and C are the ends. Primed or numbered codes have the meaning given here. Ends that are not written are not given here. DVP = divinylpyrimidine, c1nc(CC[*:1])cc(CC[*:2])n1; DVT″ = divinyltriazine

B1: SP24, tag-free, stapled with DVP (peptide)
chain: GFSGFSTASGKKLNVSCQALQKACKLFSG
modifications: linker 17-24 via DVP
In the case of B1, the results for the Kd in the assay with HumRadA22 [1] and with HumRadA22 [2] were 13 nM and 21 nM, respectively.

B2: SP31 (peptide)
chain: RRRRRRRRRGCSGFSTASGKKLNVSTQACQKAVKLFSG
modifications: stapled (linker not stated for SP31)
In turn, B2 gave a Kd in the assay with HumRadA22 [3] of 44 nM.

B3: SP30, tag-free, stapled with DVP (peptide)
chain: GCSGFSTASGKKLNVSTQACQKAVKLFSG
modifications: linker 2-20 via DVP (inferred)
For B3, the Kd with HumRadA22 [1] amounted to 13 nM; with HumRadA22 [2], 26 nM.

B4: SP2, tag-free, stapled with DVT (peptide)
chain: GSVNSSAFSGFSTASGKKLNVSCEALQKACKLFSDI
modifications: linker 23-30 via DVT″
Consider B4, for which, in the assay with HumRadA22 [2], the dissociation constant (Kd) was 17 nM.

B5: BRC8-2 template (peptide)
chain: VNSSAFSGFSTASGKKLNVSTEALQKAVKLFSDIENIS
Consider B5, for which the dissociation constant (Kd) in the assay with HumRadA22 [2] worked out at 4 nM.
